Values of other authors in publication PMC10293842 (Proceedings of the National Academy of Sciences of the …, 2023).

System: Omicron BA.1 and BA.2

B1: Adintrevimab (antibody, chains of the INN, looked up, V domains shown)
VH: EVQLVESGGGLVKPGGSLRLSCAASGFTFSSYYMNWVRQAPGKGLEWVSSISEDGYSTYYPDSLKGRFTISRDSAKNSLYLQMNSLRADDTAVYYCARDFSGHTAWAGTGFEYWGQGTLVTVSS
VL: QSVLTQPPSVSGAPGQRITISCTGSSSNIGAGYDVHWYQQLPGTAPKLLIYGSSSRNSGVPDRFSGSKSGTSASLAITGLQAEDEADYYCQSYDSSLSVLYTFGTGTKVTVL
  decrease in activity: 20 fold
